Publication PMC4760375, “A dual phosphorylation switch controls 14-3-3-dependent cell surface expression of TASK-1” (Journal of Cell Science, 2016)
No end group written: not given here.

Key:
14-3-3σ = target: T1, 14-3-3σ (Homo sapiens, UniProt P31947); test: Surface plasmon resonance, 14-3-3σ; type: binding; details: GST fusion captured by anti-GST antibody on chip, phosphorylated on-chip with PKA catalytic subunit; 150 mM NaCl, 20 mM HEPES, 0.005% Tween 20 pH 7.5, 20°C; equilibrium, sigmoidal dose-response fit; ±s.e.m., at least six repeats; read-out: Kd, SPR, 14-3-3σ
T1 construct: Open reading frames encoding human 14-3-3 proteins were inserted into the pMAL2Cx vector at EcoRI and HindIII restriction sites; made in house
T1 sequence (P31947 1-248): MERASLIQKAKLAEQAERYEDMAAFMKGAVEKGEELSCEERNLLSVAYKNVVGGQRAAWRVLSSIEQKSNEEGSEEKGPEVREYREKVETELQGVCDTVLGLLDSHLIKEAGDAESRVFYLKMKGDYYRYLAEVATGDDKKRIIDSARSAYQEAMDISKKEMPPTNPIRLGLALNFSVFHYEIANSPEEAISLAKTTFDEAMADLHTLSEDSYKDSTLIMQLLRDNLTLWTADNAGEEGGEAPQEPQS
From the text: (§1) In addition to fluorescence polarization, we used surface plasmon resonance (SPR) as a second, complementary approach to quantify the binding parameters for the TASK-3 C-terminus (Fig. 3, Table 1). […] We developed an on-chip phosphorylation protocol (Fig. 3A) where we first captured the GST fusion proteins on the chip surface with an antibody against GST (which was crosslinked at a high density to the metal surface) and then phosphorylated GST–TASK-3 with recombinantly expressed PKA catalytic subunit (also known as PRKACA; [Knape et al., 2015]). […] Consistent with the results of fluorescence polarization titration, no binding of 14-3-3 proteins was observed prior to on-chip phosphorylation, whereas all 14-3-3 isoforms did bind upon phosphorylation of the TASK-3 C-terminus (Fig. 3C) with equilibrium dissociation constants (Fig. 3D, Table 1) between 45±9 nM (14-3-3γ) to 742±29 nM (14-3-3σ). Depending on the 14-3-3 isoform, these values were very similar (14-3-3η and 14-3-3τ) or differed two- (14-3-3β) to fivefold (14-3-3ε, 14-3-3ζ and 14-3-3σ) from the values determined by fluorescence polarization (Fig. 2, Table 1). […]
(§2) Fig. 3. Affinities of the seven mammalian 14-3-3 isoforms for the phosphorylated TASK-3 C-terminus obtained by surface plasmon resonance are consistent with values obtained using fluorescence polarization. […]

14-3-3γ = target: T2, 14-3-3γ (Homo sapiens, UniProt P61981); test: Surface plasmon resonance, 14-3-3γ; type: binding; details: GST fusion captured by anti-GST antibody on chip, phosphorylated on-chip with PKA catalytic subunit; 150 mM NaCl, 20 mM HEPES, 0.005% Tween 20 pH 7.5, 20°C; equilibrium, sigmoidal dose-response fit; ±s.e.m., at least six repeats; read-out: Kd, SPR, 14-3-3γ
T2 construct: Open reading frames encoding human 14-3-3 proteins were inserted into the pMAL2Cx vector at EcoRI and HindIII restriction sites; made in house
T2 sequence (P61981 1-247): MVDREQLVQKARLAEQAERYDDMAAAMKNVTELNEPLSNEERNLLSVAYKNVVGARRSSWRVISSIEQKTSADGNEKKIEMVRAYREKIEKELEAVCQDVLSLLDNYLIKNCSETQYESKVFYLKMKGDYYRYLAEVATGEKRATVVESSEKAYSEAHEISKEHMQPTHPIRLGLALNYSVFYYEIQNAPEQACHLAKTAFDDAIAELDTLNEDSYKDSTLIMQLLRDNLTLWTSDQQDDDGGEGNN
From the text: as §1, §2

14-3-3 proteins = test: Surface plasmon resonance, statements across the 14-3-3 isoforms; type: binding, human; details: SPR, prior to on-chip phosphorylation
From the text: as §1, §2

Kd (14-3-3σ): 0.742 ± 0.029 µM | Kd (14-3-3γ): 0.045 ± 0.009 µM | binding of 14-3-3 proteins (in words) (14-3-3 proteins): no binding
Substance: GST–TASK-3-CT15: Glutathione S-transferase fused to the TASK-3 C-terminal 15 residues, from E. coli, phosphorylated on-chip with PKA (SFTDHQRLMKRRKSV; also: GST fusion, end not given here, phosphorylated with PKA, site not given here)
